The results in this text go back to the supplement of paper PMC12042874.

± gives the uncertainty stated by the source.

The nature of the data set: amyloid nucleation score (Sup35N fusion, yeast selection) (log enrichment); library NNK2; higher = more nucleation; inactive = no reads after selection. The procedure, abridged: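 In psi-negative yeast, Sup35N fusions carrying peptides of 20 random codons were induced with 100 μM copper sulfate for 24 hours. The cells then grew 7 days at 30°C on medium lacking adenine and uracil, and plasmid inserts from input and output were Illumina-sequenced, excluding sequences with under 100 input reads. Nucleation score is the DiMSum log enrichment of output over input reads, centred on the mode score of non-aggregating sequences.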
As to STDWNLRPGPSLRWLLSPAT, the amyloid nucleation score came to 0.92 ± 0.45. For STGIGDNATFSYRISRYSVC, the amyloid nucleation score was -0.492 ± 0.39. On to STLHQSIKTGDIFFDSGTFV, for which the amyloid nucleation score was -0.889 ± 0.49.

STLSWSFIYTSIC: the amyloid nucleation score was found to be 2.24 ± 0.1. For STMAGTLW the value was 0.051 ± 0.4. For STMFSVNFST the value was “inactive”; for STNRWQHIL, -0.382 ± 0.48. For STRVWWDSWMFWLNEK the value was -0.607 ± 1. Turning to STSRFTMQQRRKLYKSFCWR, the amyloid nucleation score is -0.665 ± 1.1.

Substance STSVWRGLSRPRNVQRRLDT displayed an amyloid nucleation score of -0.985 ± 0.42.

Take STSWGSRSVDCC: the amyloid nucleation score was -0.609 ± 0.25. STTQEF: the amyloid nucleation score came out at 0.086 ± 0.32.

Turning to STVMWLRASLRIQNYTRGDT, the amyloid nucleation score was determined as 4.54 ± 0.052. Next, STYLFNSSHPVSVISEAQFS: -0.408 ± 0.79; SVDGMLSVSVLVNDVVKTPL: 0.309 ± 0.22; SVDYLCFVFNGGRSSSECQY: 7.755 ± 0.032. In the case of SVFSYMYRLNSALLYFFYQS, the amyloid nucleation score entry is “inactive”. SVGIVSSDRCLCLMSM: the amyloid nucleation score is 1.3 ± 0.39. For SVGVTVSRVASREGSSRSRA the value was 0.573 ± 0.36; for SVIIQLSYTRGYWLLQA, -0.845 ± 0.45; for SVKNR, 3.51 ± 0.049. For SVLELYRTSIFYLRLVSNLL the value was 3.52 ± 0.079; for SVLIFATRKCLYFYLGFMR, -1.66 ± 0.45. For SVLQTTFVLVVGKTYNTSTD the value was 2.94 ± 0.072; for SVLTCKLK, “inactive”; for SVNSC, -0.654 ± 1. In the case of SVNYFLRGHKPRVNVVPSVE, the amyloid nucleation score was determined as 5.119 ± 0.046. Substance SVRFAC gave an amyloid nucleation score of -0.114 ± 1.1. Take SVRKGVFNSSMNGVCTTVQS: the amyloid nucleation score was -0.28 ± 0.74. For SVRNNLAVGDKLFNVTADCN the value was 0.168 ± 0.8; for SVSNVPRGWSLTRGLSTVPG, 0.828 ± 0.22; for SVSQPYSKSVGLRGRGKQGQ, 0.737 ± 0.46.

Consider SVSVYTASS, for which the amyloid nucleation score entry was “inactive”. Next, SVVFDYCSGIVSRY: -0.483 ± 1.1.

SVVVNPCLLA yielded an amyloid nucleation score of -0.623 ± 1.

Turning to SVVYSFTRMPVGIFLMISEL, the amyloid nucleation score is -0.552 ± 0.35.

As to SVYMLRLNYYSFVVLRQTGA, the amyloid nucleation score is -0.135 ± 0.79. In turn, SVYREWLPSSSRVWCMSLSG gave an amyloid nucleation score of -0.317 ± 0.63.

As to SVYRFFAKSKMKCWGLHNGG, the amyloid nucleation score was -0.63 ± 0.55.

Take SWALKRAPVGNR: the amyloid nucleation score entry is “inactive”.

In turn, SWFRFCMYWFSDCRNILGS gave an amyloid nucleation score of 4.58 ± 0.051. For SWGGLSKGYCLFQSWRVVLG, the amyloid nucleation score amounted to 3.75 ± 0.054. Take SWGSVRNRMCMSGGRKSSDA: the amyloid nucleation score entry is “inactive”. Turning to SWLRMSTDVIGLRWFDGNA, the amyloid nucleation score stood at 4.84 ± 0.065.

In turn, SWLYLPWLLLQARILHR gave an amyloid nucleation score of -0.197 ± 0.24. On to SWNELSRFLVILLFQLSRDR, for which the amyloid nucleation score is -0.795 ± 0.43. In the case of SWRIDNVGSRWSTMVCC, the amyloid nucleation score amounted to 6.09 ± 0.063. For SWVLLAY the value was 0.45 ± 0.8.

As for SWVSFDKSLHMGVVYDRLRR, the amyloid nucleation score result was “inactive”. For SWVVL, the amyloid nucleation score was -0.563 ± 0.79. For SWWAY the value was 0.69 ± 0.62; for SYARIYFWDEILENPSPVWE, -0.378 ± 1.

As for SYASWYCLYCKNSGQGFLFE, the amyloid nucleation score turned out to be 7.948 ± 0.026. Next, SYAYVSKMYVKYCQLKFI: -0.921 ± 0.78. For SYDPGITSSWMVRIRRVRMC the value was -0.001 ± 0.49; for SYDSPPSEHLVPVAQSISVP, 1.17 ± 0.44. Next, SYEVNIYKLRLQGSSSGF: 3.44 ± 0.066. SYFDMWIGW registered an amyloid nucleation score of 1.2 ± 0.47.

SYFHNHWFCLRQFRVDASWC came in with an amyloid nucleation score of -0.047 ± 0.46. With SYFSCCLFFRAFSTFFGVIP, the amyloid nucleation score came out at 3.33 ± 0.11. Next, SYGFQVLDAKDVLMLAFVWA: 0.255 ± 1.1. As for SYGIAWTIMT, the amyloid nucleation score was -0.701 ± 0.45.

SYGNEFMM had an amyloid nucleation score of 0.363 ± 0.57. For SYHNVG, the amyloid nucleation score is -0.974 ± 0.61. Take SYHRQRSNTFTAKLQCSRSW: the amyloid nucleation score amounted to 0.307 ± 0.56. Next, SYIGMNQNCFSEQLNNAQTG: 0.606 ± 0.18; SYSFRVVDWVYILTYLRKFE: 1.65 ± 0.33; SYSLIVE: 0.919 ± 0.48. Next, SYSVQAALVCVFGGCNHVGS: 9.383 ± 0.048; SYVAFLSTTRASSMI: “inactive”; SYVVPGFISASFYLCYCTSK: 3.03 ± 0.12. Next, SYVYMREKSIGTDSAVLRSM: “inactive”; SYWIADTNRSGNRRLSCGRC: 0.266 ± 1.

In turn, SYYEFVVNLGKPAISVDSIT displayed an amyloid nucleation score of 0.349 ± 0.51. With TAAPSEVMPIMALRPPKESS, the amyloid nucleation score was -0.541 ± 0.79. Next, TAAVILLIVNRDANA: 1.94 ± 0.14. For TACSQVVGVIHIIVGRGRSR the value was 7.292 ± 0.045; for TADLDIDGPVS, 4.64 ± 0.094; for TAGFRILRRHFSIGVGSRTW, “inactive”.

TAKDTPCAVRIIFEFLDGLV displayed an amyloid nucleation score of 7.279 ± 0.056.

Substance TAKLFDISTCKCPD returned an amyloid nucleation score of -0.105 ± 0.79. For TALDAGHA the value was -1.19 ± 0.45; for TASHTWSVVCFTWYRCLVND, 4.98 ± 0.051; for TASMGVVVSDENWE, 0.633 ± 0.14.

Substance TATGTIECMVYPLTFSSLSP returned an amyloid nucleation score of -0.1 ± 1.

In turn, TCGLFTA registered an amyloid nucleation score of 1.2 ± 0.44.

The substance TCICEVHTPTSSMISPSMSF returned an amyloid nucleation score of -1.51 ± 0.75. In the case of TCNSGRYSRAACAWWN, the amyloid nucleation score was -0.114 ± 0.45. TCPCRYLDVNIDAMFVTMDI came in with an amyloid nucleation score of 7.789 ± 0.056.

Regarding TCTVASLYLGAFDWNYVEAV, the amyloid nucleation score was 3.08 ± 0.12. Next, TCYMVWSLYC: 3.93 ± 0.067; TDCTLSGKRLRYLNGDCFKK: -1.13 ± 0.55; TDFCSHKTWLSAVGISV: 0.037 ± 0.23. In turn, TDGVLFQLVDSKFV returned an amyloid nucleation score of -1.25 ± 0.64. For TDKCVTTFNCYNLHRR the value was 1.62 ± 0.15.

In turn, TDLYTCDVLRVLVCAH had an amyloid nucleation score of -0.011 ± 0.45. On to TDMWPVYANRVFYNMSWSRP, for which the amyloid nucleation score result was “inactive”. For TDNNNVYYVYSLQVIPTVSD the value was -0.496 ± 0.32. For TDSYPVLDLHPGSYRVH the value was 0.397 ± 0.39; for TEGHVNSQIRWNLVY, -0.348 ± 0.36; for TELKEGLYAGIHFNTGTG, -0.457 ± 0.64. Next, TESIFCSYSWVCVGVMSNYD: 5.1 ± 0.071; TETNRDWRLGDDW: 5.293 ± 0.047; TFAQYPSLGNSFSGWGYCVK: -2.02 ± 0.75. TFCEWMLWNTLCQVLSVPPY yielded an amyloid nucleation score of 6.423 ± 0.045.

As to TFCICPFNAEV, the amyloid nucleation score came to 7.35 ± 0.029. As for TFHGNYFVDTSA, the amyloid nucleation score entry is “inactive”. For TFLQPTLEVSLL the value was -0.612 ± 0.48; for TFMFDHRIGISDGLSTIMVI, 0.923 ± 0.81; for TFMRKCIFMFLFVIFSFYSS, 2.03 ± 0.11. For TFNISLAWCEFFSHIFLLN the value was “inactive”. For TFSQYTWEFIYN the value was 3.68 ± 0.11; for TFYCTSCFLLMSVMSFHRLL, 1.89 ± 0.13; for TGAFPDCLALMYKGAEEVER, 0.011 ± 0.28.

Consider TGCRVGHCIYVYVSEVSSNP, for which the amyloid nucleation score worked out at 0.903 ± 0.34. Consider TGCVDVAEMVNP, for which the amyloid nucleation score came out at 0.138 ± 0.48.

Regarding TGFGTSMFSKLYVNVNYL, the amyloid nucleation score turned out to be 5.37 ± 0.072. With TGGGATLRRILRHLSVGSDR, the amyloid nucleation score was -0.005 ± 0.79.

TGLDFGNLLLARCMSRV: the amyloid nucleation score stood at 0.43 ± 0.32. Regarding TGLKIG, the amyloid nucleation score was 0.038 ± 0.29. For TGLTLVV the value was -0.094 ± 1; for TGRISVSG, 0.14 ± 1.

TGSRNIWTRVVFLYCFRVHG gave an amyloid nucleation score of -0.939 ± 0.54. TGSWNGCVKWASRLKRAGGR yielded an amyloid nucleation score of 0.643 ± 0.64. For TGTFSAKLVDTPEGYYLLSV the value was -1.01 ± 0.41; for TGVFHSVCNIWCFHSKDPSN, 7.54 ± 0.076; for THCFCGTNGWVMWGSPEGLA, 0.179 ± 0.55.

Substance THMSEDGFVL showed an amyloid nucleation score of 0.072 ± 0.34. For the substance TIAPGRRYENVNKGCERRFI, the amyloid nucleation score was -1.76 ± 0.76. Next, TICFIFHSFRLFRIDAY: 4.54 ± 0.098; TIFIGVRVPS: -0.224 ± 0.63; TIFWLTISCQRYRD: 1.46 ± 0.13. For TIGEVYGYLRSWIYWGSEST the value was 0.154 ± 0.46; for TIGTVMNSLSHFLRPAR, 1.15 ± 0.21. For TIHRVVWCLL the value was -0.645 ± 0.56. Substance TIILMGYLFWICRQSVR yielded an amyloid nucleation score of -0.449 ± 0.38.

TIKRLLKDFPLIFLRISGST: the amyloid nucleation score result was “inactive”.

TILGSLHFNFVKCHSKCSYF displayed an amyloid nucleation score of 7.238 ± 0.061. As for TILKDSTPAVYNVRMRFKAW, the amyloid nucleation score entry is “inactive”. For TIQAYICPLVSKAYWWGVEY the value was 6.427 ± 0.032.
